Measured values reported in US20250353926A1 (ENLAZA THERAPEUTICS, published 2025).

Legend:
[1] = molecular target: T1, PSMA expressed on target cells (PC3pip cells, high density; 22Rv1 cells, low density) (UniProt Q04609 1-750, limits assumed); experiment: cell-based or functional assay
[2] = molecular target: T2, biotin-labeled CD16a (Acro P/N CDA-H82E8) (human, UniProt P08637 17-208, biotin-labeled (site not stated)); experiment: BLI, biotin-labeled CD16a on streptavidin biosensors, pH 7.4
T2 construct: also called recombinant human CD16a; immobilized CD16a

[3] = molecular target: T1, PSMA expressed on target cells (PC3pip …); experiment: cell-based or functional assay; remark: listed apart in the source
[4] = molecular target: T3, Biotinylated his-tagged human PSMA (human, UniProt Q04609 44-750, limits assumed, biotinylated (site not stated)); experiment: BLI, biotinylated his-tagged human PSMA on streptavidin sensors, pH 7.4; covalent crosslinking; pH 7.4; apparent KD under covalent crosslinking
T3 construct: also called immobilized PSMA; not shown: his tag

[5] = molecular target: T3, Biotinylated his-tagged human PSMA; experiment: BLI, biotinylated his-tagged human PSMA on streptavidin sensors, pH 5.7
[6] = molecular target: T1, PSMA expressed on target cells (PC3pip …); experiment: cell-based or functional assay; remark: listed apart in the source
[7] = molecular target: T1, PSMA expressed on target cells (PC3pip …); experiment: cell-based or functional assay; remark: listed apart in the source
[8] = molecular target: T1, PSMA expressed on target cells (PC3pip …); experiment: cell-based or functional assay; remark: listed apart in the source
[9] = molecular target: T1, PSMA expressed on target cells (PC3pip …); experiment: cell-based or functional assay; remark: listed apart in the source
[10] = molecular target: T3, Biotinylated his-tagged human PSMA; experiment: BLI, biotinylated his-tagged human PSMA on streptavidin sensors, pH 7.4; covalent crosslinking
[11] = molecular target: T1, PSMA expressed on target cells (PC3pip …); experiment: cell-based or functional assay; remark: listed apart in the source
[12] = molecular target: T3, Biotinylated his-tagged human PSMA; experiment: BLI, biotinylated his-tagged human PSMA on streptavidin sensors, pH 7.4; non 1:1 binding (covalent crosslinking); pH 7.4; non 1:1 binding (crosslinking to PSMA)

T3 sequence (Q04609 44-750 limits assumed): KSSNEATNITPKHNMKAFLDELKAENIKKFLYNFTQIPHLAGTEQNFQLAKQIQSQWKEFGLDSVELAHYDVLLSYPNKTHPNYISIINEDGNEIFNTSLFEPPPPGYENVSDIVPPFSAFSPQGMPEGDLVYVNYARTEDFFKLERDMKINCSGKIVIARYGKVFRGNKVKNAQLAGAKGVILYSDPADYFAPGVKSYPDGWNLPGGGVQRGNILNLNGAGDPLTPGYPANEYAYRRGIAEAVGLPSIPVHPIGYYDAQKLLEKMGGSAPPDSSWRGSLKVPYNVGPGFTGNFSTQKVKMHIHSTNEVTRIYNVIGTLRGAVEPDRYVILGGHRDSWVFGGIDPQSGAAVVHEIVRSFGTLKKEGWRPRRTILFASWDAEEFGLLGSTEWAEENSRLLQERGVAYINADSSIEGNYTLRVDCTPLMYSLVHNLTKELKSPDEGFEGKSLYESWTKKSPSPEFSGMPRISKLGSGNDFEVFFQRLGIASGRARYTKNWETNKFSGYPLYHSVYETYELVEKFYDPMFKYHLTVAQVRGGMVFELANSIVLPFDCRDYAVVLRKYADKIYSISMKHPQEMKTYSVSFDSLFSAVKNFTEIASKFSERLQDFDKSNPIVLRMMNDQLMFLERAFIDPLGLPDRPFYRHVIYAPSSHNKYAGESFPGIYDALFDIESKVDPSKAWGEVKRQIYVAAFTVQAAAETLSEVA
T2 sequence (P08637 17-208 limits assumed): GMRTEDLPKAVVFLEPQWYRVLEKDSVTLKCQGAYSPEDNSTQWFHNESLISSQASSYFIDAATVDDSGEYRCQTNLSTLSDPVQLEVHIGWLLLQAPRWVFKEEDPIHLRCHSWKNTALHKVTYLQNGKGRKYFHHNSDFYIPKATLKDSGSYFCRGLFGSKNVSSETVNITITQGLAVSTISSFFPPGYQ
T1 sequence (Q04609 whole entry): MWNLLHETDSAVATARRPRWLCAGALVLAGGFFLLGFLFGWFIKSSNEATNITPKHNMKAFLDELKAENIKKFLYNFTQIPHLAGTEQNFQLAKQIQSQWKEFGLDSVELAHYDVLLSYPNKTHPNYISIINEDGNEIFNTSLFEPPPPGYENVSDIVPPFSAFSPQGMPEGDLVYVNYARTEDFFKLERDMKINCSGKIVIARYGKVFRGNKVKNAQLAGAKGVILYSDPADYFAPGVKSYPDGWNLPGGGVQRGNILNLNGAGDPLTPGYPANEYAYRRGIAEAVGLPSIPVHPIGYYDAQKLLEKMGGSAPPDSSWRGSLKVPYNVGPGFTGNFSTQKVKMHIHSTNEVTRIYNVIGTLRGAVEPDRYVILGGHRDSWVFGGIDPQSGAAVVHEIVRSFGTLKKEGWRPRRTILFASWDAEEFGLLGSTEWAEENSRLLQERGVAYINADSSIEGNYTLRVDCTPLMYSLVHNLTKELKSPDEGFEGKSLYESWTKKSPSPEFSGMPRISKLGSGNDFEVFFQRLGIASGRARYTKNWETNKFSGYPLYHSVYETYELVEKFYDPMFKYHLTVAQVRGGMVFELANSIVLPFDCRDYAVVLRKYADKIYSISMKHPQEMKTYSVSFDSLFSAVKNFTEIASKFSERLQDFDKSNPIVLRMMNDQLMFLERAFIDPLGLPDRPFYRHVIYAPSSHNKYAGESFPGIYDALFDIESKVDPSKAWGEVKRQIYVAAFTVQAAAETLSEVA

- EC50; ADCC reporter assay, 22Rv1 4 h washout, 24 h endpoint [1]: 3.19 nM
- Kd [2]: 1.48 nM
- koff [2]: 8.69e-05 s⁻¹
- kon [2]: 58800 M⁻¹ s⁻¹
- Kd [4]: < 1 nM
- Kd [5]: ≤ 1140 nM
- koff [5]: 0.0465 s⁻¹
- kon [5]: 40700 M⁻¹ s⁻¹
- EC50; ADCC reporter assay, PC3pip 4 h washout, 24 h endpoint [6]: 0.667 nM
- EC50; ADCC reporter assay, 22Rv1 24 h continual [9]: 0.54 nM
- koff [10]: < 1e-07 s⁻¹
- EC50; ADCC luciferase reporter assay (Jurkat CD16a V158 reporter cells), PC3pip 24 h continuous [11]: 0.219 nM
- kon [12]: 12800 M⁻¹ s⁻¹
B1: C22 (C37-L3-C35) (bispecific antibody)
chain: EVQLVESGGGLVQPGESLTLSCVVAGSIFSFAMSWYRQAPGKERELVARIGSDDRVTYADSVKGRFTISRDNIKRTAGLQMNSLKPEDTAVYYCNAQTDLRDWTVREYWGQGTQVTVSSGGGGSGGGGSGGGGSGGGGSQVQLQESGGGSVEAGGSLRLSCARSGWPYSTYSMNWFRQAPGKEREAVAGISSTMSGIIFAESKAGQFTISQDNAKNTVYLQMNNLKPEDTAIYYCAARRXFSLSSSSDDFDYWGQGTQVTVSSAAAYPYDVPDYGSSPSTPPTPSPSTPPHHHHHH
modifications: FSY (fluorosulfonyltyrosine) at the position printed X in SEQ ID NO: 37 (position 101 of the anti-PSMA sdAb domain)
notes: anti-CD16a sdAb C37 - 4x(G4S) - anti-PSMA sdAb-FSY C35; entry holds HA tag, SP tag and His6; also called C22 (FSY); FSY-containing bispecific construct
- EC50 [nM]; primary human NK cell-mediated killing of PC3pip cells, no washout, 20 h incubation [3]: 0.066 nM
- fold potency against C25; NK cell-mediated killing of PC3pip cells, 5 hr incubation and washout [7]: 140 fold
- fold potency against C25; NK cell-mediated killing of PC3pip cells, test article present throughout [7]: 106 fold
- EC50 [nM]; NK cell-mediated killing of PC3pip cells, 5 h washout, 20 h incubation [8]: 0.188 nM
